The supplement of paper PMC10724198
± gives the standard deviation of the averaged measurements.

Tested on: Saccharomyces cerevisiae
Assay: protein stability index of tFT-peptide fusion (C-terminal peptide) (PSI (0-1 scale)); higher = more stable (slower turnover)
Conditions: temperature: 30 C
Description: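 MPS profiling in S. cerevisiae of the yeast C-terminome library: the last 12 aa of each annotated ORF are fused to the C-terminus of a sfGFP-mCherry timer, after a GGGS linker. Cells are FACS-sorted into 8 mCherry/sfGFP bins and deep-sequenced. PSI runs from 0 (unstable) to 1 (stable); wild type and das1Δ backgrounds, two technical replicates each.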

[1] = genetic background: das1 deletion

| Sequence | protein stability index [1] | protein stability index (genetic background: wild type) |
| --- | --- | --- |
| LAFYLRRLTAKK [RPS8A C-terminal 12 aa] | 0.674 ± 0.041 | 0.657 ± 0.0076 |
| LCHSSHIPETLK [MSN1 C-terminal 12 aa] | 0.719 ± 0.033 | 0.663 ± 0.042 |
| LCKEELKYQAIQ [YMR099C C-terminal 12 aa] | 0.701 ± 0.037 | 0.6649 ± 0.0029 |
| LCQHYIGWCPFW [TOR1 C-terminal 12 aa] | 0.7144 ± 0.0024 | 0.687 ± 0.011 |
| LDGSREVGAAKS [UME1 C-terminal 12 aa] | 0.682 ± 0.026 | 0.7109 ± 0.0018 |
| LDKELTDGCKQQ [PEX19 C-terminal 12 aa] | 0.7031 ± 0.005 | 0.684 ± 0.012 |
| LDKVGKKKGGKK [LRP1 C-terminal 12 aa] | 0.701 ± 0.049 | 0.689 ± 0.025 |
| LDLWRDFLNQAN [IDS2 C-terminal 12 aa] | 0.742 ± 0.015 | 0.629 ± 0.029 |
| LDQFEINSDGEE [NCS2 C-terminal 12 aa] | 0.691 ± 0.022 | 0.709 ± 0.012 |
| LEAATNFLLDSA [EDE1 C-terminal 12 aa] | 0.722 ± 0.027 | 0.6796 ± 0.004 |
| LELEFNSHFELK [HNT3 C-terminal 12 aa] | 0.69 ± 0.008 | 0.7 ± 0.041 |
| LEWLSNSLKNST [ARF1 C-terminal 12 aa] | 0.735 ± 0.034 | 0.6802 ± 0.0039 |
| LFVEETNDIGYK [TRE2 C-terminal 12 aa] | 0.736 ± 0.026 | 0.691 ± 0.021 |
| LFYVMTMTKFLF [PHM6 C-terminal 12 aa] | 0.5199 ± 0.0025 | 0.364 ± 0.0018 |
| LGDAYVSSDEEF [YEF3 C-terminal 12 aa] | 0.683 ± 0.016 | 0.6769 ± 0.0049 |
| LGEYIEEMNIRS [YBP2 C-terminal 12 aa] | 0.7143 ± 0.0008 | 0.684 ± 0.018 |
| LGGLLTVLIWFL [KRE1 C-terminal 12 aa] | 0.335 ± 0.004 | 0.332 ± 0.014 |
| LIDSVKKKVNND [SAC3 C-terminal 12 aa] | 0.681 ± 0.029 | 0.697 ± 0.069 |
| LIGGNTNDGLSK [CHA4 C-terminal 12 aa] | 0.683 ± 0.023 | 0.722 ± 0.029 |
| LIMELAVNSQSN [SNF1 C-terminal 12 aa] | 0.681 ± 0.034 | 0.691 ± 0.027 |
| LIQFLEPSKRVA [YPT35 C-terminal 12 aa] | 0.72 ± 0.037 | 0.722 ± 0.042 |

| Sequence | protein stability index [1] | protein stability index (genetic background: wild type) |
| --- | --- | --- |
| LITTRTVHRSLD [YEL076C-A C-terminal 12 aa] | 0.6963 ± 0.0014 | 0.6572 ± 0.0041 |
| LKDLEKLGWKDE [YGR054W C-terminal 12 aa] | 0.695 ± 0.013 | 0.666 ± 0.022 |
| LKKQIFEKVQKE [MET4 C-terminal 12 aa] | 0.701 ± 0.02 | 0.635 ± 0.022 |
| LKPWEGRIYISE [IMA1 C-terminal 12 aa] | 0.714 ± 0.016 | 0.6846 ± 0.0068 |
| LKSLSKYSVQNS [CTF3 C-terminal 12 aa] | 0.686 ± 0.014 | 0.678 ± 0.042 |
| LKTIAAVFSVRV [YJR114W C-terminal 12 aa] | 0.612 ± 0.0077 | 0.629 ± 0.022 |
| LLERLSILDRLD [APS2 C-terminal 12 aa] | 0.669 ± 0.019 | 0.69 ± 0.013 |
| LLIPRRILTLDL [PDL32 C-terminal 12 aa] | 0.602 ± 0.001 | 0.605 ± 0.036 |
| LLLLILNECYPA [BUD30 C-terminal 12 aa] | 0.518 ± 0.0085 | 0.539 ± 0.033 |
| LLLSFYFDFYPF [YEL050W-A C-terminal 12 aa] | 0.515 ± 0.009 | 0.6535 ± 0.0032 |
| LLPMAFGPSHLN [CDD1 C-terminal 12 aa] | 0.743 ± 0.032 | 0.76 ± 0.045 |
| LLSGEPLAKKKE [HMLALPHA2 C-terminal 12 aa] | 0.697 ± 0.0074 | 0.744 ± 0.036 |
| LLSVHMYSSSLL [YNL019C C-terminal 12 aa] | 0.687 ± 0.011 | 0.671 ± 0.018 |
| LMETSKDVDSHP [DMA2 C-terminal 12 aa] | 0.7 ± 0.01 | 0.729 ± 0.0096 |
| LPEAPSSQPLQA [TIM17 C-terminal 12 aa] | 0.674 ± 0.013 | 0.696 ± 0.03 |
| LPNVPTVAYVII [YNL319W C-terminal 12 aa] | 0.6334 ± 0.0054 | 0.664 ± 0.024 |
| LPPEGKPKGKDD [TAZ1 C-terminal 12 aa] | 0.701 ± 0.018 | 0.661 ± 0.018 |
| LQARLNTLKKQT [DID4 C-terminal 12 aa] | 0.681 ± 0.049 | 0.604 ± 0.0095 |
| LQPLIDLDIDNK [ICS2 C-terminal 12 aa] | 0.699 ± 0.026 | 0.702 ± 0.041 |
| LQRLCKKYPEIY [RFA3 C-terminal 12 aa] | 0.709 ± 0.015 | 0.703 ± 0.02 |
